Test results published in article PMC10401862, “A high-throughput dual system to screen polyphosphate kinase mutants for efficient ATP regeneration in L-theanine biocatalysis” (Biotechnology for Biofuels and Bioproducts, 2023).

B1: ChPPK (Cytophaga hutchinsonii ATCC 33406) (protein)
chain: MATDFSKLSKYVETLRVKPKQSIDLKKDFDTDYDHKMLTKEEGEELLNLGISKLSEIQEKLYASGTKSVLIVFQAMDAAGKDGTVKHIMTGLNPQGVKVTSFKVPSKIELSHDYLWRHYVALPATGEIGIFNRSHYENVLVTRVHPEYLLSEQTSGVTAIEQVNQKFWDKRFQQINNFEQHISENGTIVLKFFLHVSKKEQKKRFIERIELDTKNWKFSTGDLKERAHWKDYRNAYEDMLANTSTKQAPWFVIPADDKWFTRLLIAEIICTELEKLNLTFPTVSLEQKAELEKAKAELVAEKSSD
notes: synthesized gene expressed in E. coli BL21(DE3) from pXMJ-19, Ni-NTA purified
B2: ChPPK (Cytophaga hutchinsonii ATCC 33406; D82N) (protein)
chain: MATDFSKLSKYVETLRVKPKQSIDLKKDFDTDYDHKMLTKEEGEELLNLGISKLSEIQEKLYASGTKSVLIVFQAMDAAGKNGTVKHIMTGLNPQGVKVTSFKVPSKIELSHDYLWRHYVALPATGEIGIFNRSHYENVLVTRVHPEYLLSEQTSGVTAIEQVNQKFWDKRFQQINNFEQHISENGTIVLKFFLHVSKKEQKKRFIERIELDTKNWKFSTGDLKERAHWKDYRNAYEDMLANTSTKQAPWFVIPADDKWFTRLLIAEIICTELEKLNLTFPTVSLEQKAELEKAKAELVAEKSSD
notes: as for B1
B3: ChPPK (Cytophaga hutchinsonii ATCC 33406; K103E) (protein)
chain: MATDFSKLSKYVETLRVKPKQSIDLKKDFDTDYDHKMLTKEEGEELLNLGISKLSEIQEKLYASGTKSVLIVFQAMDAAGKDGTVKHIMTGLNPQGVKVTSFEVPSKIELSHDYLWRHYVALPATGEIGIFNRSHYENVLVTRVHPEYLLSEQTSGVTAIEQVNQKFWDKRFQQINNFEQHISENGTIVLKFFLHVSKKEQKKRFIERIELDTKNWKFSTGDLKERAHWKDYRNAYEDMLANTSTKQAPWFVIPADDKWFTRLLIAEIICTELEKLNLTFPTVSLEQKAELEKAKAELVAEKSSD
notes: as for B1

Substrate: Nc1ncnc2c1ncn2[C@@H]1O[C@H](COP(=O)(O)OP(=O)(O)O)[C@@H](O)[C@H]1O
Assay: purified protein
Format: biochemical, Cytophaga hutchinsonii
Settings: 100 mM Tris-HCl pH 8.0, 35 °C, MgCl2, ADP 0.1 to 5 mM, polyP6 as co-substrate

| Protein | Km | kcat | kcat/Km |
| --- | --- | --- | --- |
| B1 | 1390 ± 70 µM | 10 ± 0.13 s⁻¹ | 7220 M⁻¹ s⁻¹ |
| B2 | 950 ± 30 µM | 15.05 ± 0.04 s⁻¹ | 15800 M⁻¹ s⁻¹ |
| B3 | 810 ± 120 µM | 19.69 ± 0.12 s⁻¹ | 24300 M⁻¹ s⁻¹ |
